Measurements as given in doi:10.1101/2022.02.18.481027.

Tests used:
[1] = target: Murine IL-27Rα ectodomain (amino acids 28-224), N-terminally biotinylated (murine) (UniProt O70394); assay: SPR
[2] = target: Murine GP130 ectodomain with C-terminal biotin acceptor peptide, biotinylated (murine) (UniProt Q00560); assay: SPR
Murine GP130 ectodomain with C-terminal biotin acceptor peptide, biotinylated (murine), sequence (Q00560 23-319): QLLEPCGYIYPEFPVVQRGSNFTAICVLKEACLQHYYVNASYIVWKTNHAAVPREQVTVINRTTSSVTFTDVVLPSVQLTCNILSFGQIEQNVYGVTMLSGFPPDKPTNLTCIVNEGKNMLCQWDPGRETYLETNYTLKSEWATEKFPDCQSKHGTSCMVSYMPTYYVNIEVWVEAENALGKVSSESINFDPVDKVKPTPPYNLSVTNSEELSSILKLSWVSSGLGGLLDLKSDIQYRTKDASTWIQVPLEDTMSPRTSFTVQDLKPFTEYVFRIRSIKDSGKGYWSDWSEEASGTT

Murine IL-27Rα ectodomain (amino acids 28-224), N-terminally biotinylated (murine), sequence (O70394 28-224): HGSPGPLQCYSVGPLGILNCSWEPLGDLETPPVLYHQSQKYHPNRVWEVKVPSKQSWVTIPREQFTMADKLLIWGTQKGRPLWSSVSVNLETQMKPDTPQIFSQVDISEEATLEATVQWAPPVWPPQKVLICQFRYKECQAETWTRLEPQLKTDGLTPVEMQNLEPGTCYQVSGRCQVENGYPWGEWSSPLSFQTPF

- Kd [1]: 0.29 nM
- Kd [2]: 3.1 nM
Substance: Murine IL-27, linker-connected single-chain variant (p28+EBI3) (ligand)
